Laboratory results: patent US20150175666A1 (YEDA RESEARCH AND DEVELOPMENT, published 2015)
Ends that are not written are not given here. * marks the point of attachment. NBD = O=[N+]([O-])c1ccc(*)c2nonc12

Legend:
[1] = target: T1, NBD-labeled core peptide of the TCRα TMD (GLRILLLKV; SEQ ID NO: 14); assay: NBD fluorescence of NBD-CP on PC:Chol LUVs, sequential doses of unlabeled peptide
T1 construct: also called NBD-CP; CP
T1 peptide: {NBD}-GLRILLLKV

[2] = target: T2, TCR of MOG35-55-specific murine line T cells (mMOG35-55 T cells) (mouse, UniProt A2KF29); assay: cell-based or functional assay
T2 sequence (A2KF29 whole entry): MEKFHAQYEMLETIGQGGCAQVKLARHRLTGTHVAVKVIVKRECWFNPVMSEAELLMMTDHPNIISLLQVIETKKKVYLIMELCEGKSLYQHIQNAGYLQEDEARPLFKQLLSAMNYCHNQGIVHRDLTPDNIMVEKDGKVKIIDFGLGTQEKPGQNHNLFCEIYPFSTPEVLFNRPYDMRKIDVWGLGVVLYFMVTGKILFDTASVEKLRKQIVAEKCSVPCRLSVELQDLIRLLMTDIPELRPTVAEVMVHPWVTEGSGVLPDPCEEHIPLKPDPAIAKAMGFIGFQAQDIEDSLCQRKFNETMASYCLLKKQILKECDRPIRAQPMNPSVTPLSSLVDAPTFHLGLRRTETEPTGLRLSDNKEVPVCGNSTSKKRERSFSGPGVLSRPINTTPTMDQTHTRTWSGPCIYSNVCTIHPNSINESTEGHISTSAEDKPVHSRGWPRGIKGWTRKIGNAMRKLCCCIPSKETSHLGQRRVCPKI

[3] = target: T2, TCR of MOG35-55-specific murine line T …; assay: cell-based or functional assay; remark: listed apart in the source

B1: control mutant (W/G) peptide (SNKSLEQIGNHTTGMEGD, SEQ ID NO: 9), unlabeled (peptide)
peptide: SNKSLEQIGNHTTGMEGD
notes: Unlabeled form used in the NBD-CP fluorescence experiment
binding result [1]: binds

B2: control mutant peptide (SNKSLEQIWNHTTWMGWG, SEQ ID NO: 10), unlabeled (peptide)
peptide: SNKSLEQIWNHTTWMGWG
notes: pep 6 with the conserved acidic residues (Glu and Asp) mutated to Gly
binding result [1]: binds

SNKSLEQIWNHTTWMEWD [pep 6 (SNKSLEQIWNHTTWMEWD), gp41 derived peptide, unlabeled]
inhibitory concentration at 50% proliferation (IC50), MOG35-55-specific T-cell proliferation [2]: 1000 nM | IC50 (µM), inhibition of MOG35-55-specific T-cell proliferation [3]: 0.55 µM | binding result [1]: binds
